Molecular target: the molecule itself
Experiment: crystal structure; crystals from 18% (w/v) PEG 3350, 10 mM magnesium chloride, 50 mM Tris-HCl pH 8.5; space group I2, two protomers per a.u. related by a dyad; data at 100 K, 2.10 Å

B1: ImmR transcriptional regulator DNA-binding domain (Bacillus subtilis ICEBs1) (domain or fragment, Bacillus subtilis strain 168, UniProt P96631 1-64, looked up)
chain: MSLGKRLKEARQKAGYTQKEAAEKLNIGNNNLSNYERDYRDPDTDTLLKLSNLYNVSTDYLLGK
notes: ImmR, HTH-type transcriptional regulator of ICEBs1, Bacillus subtilis strain 168, 127 residues; the final model comprises M1-K64 of molecules A and B, each with an N-terminal alanine (A0) left from the purification tag; Full-length ImmR (1-127) was set up for crystallisation; The authors suppose that a trypsin-like contaminant cut it after K64, because there is no density beyond K64 and the …
binding result: binds
